experiment: label from the status in PepcDB records

Row | Sequence | protein production
1 | MKILPFIARGTSYYLKMSVKKLVPFLVVGLMLAAGDSVYAYSRGNGSIARGDDYPAYYKNGSQEIDQWRMYSRQCTSFVAFRLSNVNGFEIPAAYGNANEWGHRARREGYRVDNTPTIGSITWSTAGTYGHVAWVSNVMGDQIEIEEYNYGYTESYNKRVIKANTMTGFIHFKDLDGGSVGNSQSSTSTGGTHYFKTKSAIKTEPLASGTVIDYYYPGEKVHYDQILEKDGYKWLSYTAYNGSYRYVQLEAVNKNPLGNSVLSSTGGTHYFKTKSAIKTEPLVSATVIDYYYPGEKVHYDQILEKDGYKWLSYTAYNGSRRYIQLEGVTSSQNYQNQSGNISSYGSHSSSTVGWKKINGSWYHFKSNGSKSTGWLKDGSSWYYLKLSGEMQTGWLKENGLWYYLGSSGAMKTGWYQVSGKWYYSYSSGALAVNTTVDGYRVNSDGERV | failed
2 | MKILTVNVHAWLEENQMEKIDILARTIAEKQYDVIAMQEVNQLMNNKIIFDDIREENYAWVLLETLQKYTDTDYYLHWSNSHIGFGKYNEGVAVITRHKIKAEDEFYCTFAQSVRTISARRIVSITINYEGQDIEFYSCHMNLPNCETEDMGKNIQTILNRTQNSNLKILMGDFNTDAIGNVAAYENILSQGLFDTYVMAEKKDDGITVDKSIHGWDNDKAKKRLDYIFSNKELKVKESKVIFNNKNKEIVSDHFGIEVKIEF | not failed
3 | MKIQLDINGTEIQKGVWVGSGAIIEPGAILNPPCVIGDNCRIESGAVIDSLSVIGNNNVIERDSSVKRSVIWDGNYIEYGSKIRGAILCSKTNLKRYVHIFENAIVGDNCLINERVVIKPNIKIWPQKTVEPFAIVDRNIIWGSKLEHHHHHH | failed
4 | MKISFSEIIHNALKEDLGDKGDITTNSILINEKVNFAINTRENLVVCGIPILEEVFNMNKEHVKYEIHKKDGDITGKNSTLVSGEALAIYLLPIERVILNFIQHASGIASITRQFVDEVSGTKVKIRSTRKTTPGLRMLDKYSVCIGGGESYRDNLCDGVLIKDNHIASCGSITLAIQRLRKNLKNEYIAIECDNISQVEESLSNNVDMILLDNMSISEIKKAVDIVNGKSVLEVSGCVNIRNVRNIALTGVDYISIGCITNSFQNKDIGLDIEYNNNK | not failed
5 | MKISIICPLYNAENYIMSLHNKILEQEKPEGTEVEVSYVLTRCKDKTEEMLKNMNLQYTLIEPKDFSHSKTREMMAFKSTGDIIVFISQDVMMKNNFWLKNLVQPIIDGECEASFSRQLCTNNTIEKYIREKNYPEESRVVSKKDINKYGLLTFFYSDASSAVKTSVYKELNGYDNKRLLINEDMYFAEKLIQAGYRIKYCSDSEVYHSHVFTLKSLYERYFDTGVFFRQNSQFLNYKGNKSGKDLAIHVLKRSLEDKNFKVTLNILPNFGARFIGSFLGKKYESLPRSFVMASSMSKKVYSQILEHHHHHH | not failed
6 | MKISLRLAVSSILGAIAYLGLAIWGMGGFSAFFGHPQLTLIAIATLLMVVAALYSEVNLSSGEQEDQGNRWVLPVFGVIGLLSGFVPAYSDRIDFCTFGGEGLRWLGALLFILGGGLRLWPVFILGRRFSGLVAIQPNHRLVVDGLYRHLRNPSYLGLLVNALGWALAFRSGLGLLLAALTLVPLIARIHAEEALLLKHFGKEYEAYCARSWRLLPGLY | failed
7 | MKITGTVVKLGIVSVVLLFFTVMIIVIFGQMRFDRTNGYTAEFSNVSGLRQGQFVRASGVEIGKVKALHLVDGGRRVRVEFNIDRSVPLYQSTTAQIRYSDLIGNRYVELKRGEGKGANDLLPPGGLIPLSRTSPALDLDALIGGFKPVFRALDPAKVNNIANALITVFQGQGGTINDTLDQTAQLTSQIAERDQAIGEVVKNLNIVLDTTVKHRKEFDETVNNLENLITGLRNHSDQLAGGLAHISNGAGTVADLLAENRTLVRKAVSYLDAIQQPVIDQRVELDDLLHKTPTALTALGRANGTYGDFQNFYLCDLQIKWNGFQAGGPVRTVKLFSQPTGRCTPQ | failed
8 | MKIVSIKIKNYRVFEDIKITNIPSFCVIIGANGTGKSTLFDVFGFLRDALKNNIRQALQIRGGFKEVVTRGKESEDIEIELKFRMEILATERLVTYILIIGQEGKKPVIKREILRYKRGEYGSPFHFLDFHNGQGYAIRNEESFESDEELEREEQKLESADILAIKGLGQFQRFKAANAIRSLIENWHVSDFHISDARGSKAALYAEHLSPTGDNIPIVAQYIYQEHPEIFAEILQRMKQRVPGISNVEAKEIEGGSLILKFQDQAFEDSFVDLYVSDGTIKMFAYLILLFDPKPHPLLCVEEPENQLYPTLLRELAEEFASYAHRGGQVFVSTHSPDFLNAVPLDSIFWLIKIQGVTKVEKAADHEVLRNLIAAGDLPGYLWNQGWFEGVAPLEHHHHHH | failed
9 | MKKAGILLLSLLMPFSTAFAEASKPLSVELLWQLKRIGSPVVSSTGEHIIAPVTEYDLKEDKGSTQLWRFDVEGKNNRAITAKGLKVSEPVFSPDGKTLAFISERNDDDAGQIYLLPMDGPGEAAKLTDIPTGVNGIKWVGKHLYFISNIFPEQNWEQMKAQLKTDKDNKVSARQWNALPYSQFDHWLDERRQAHVFRIPATGGTVEAVTQPLGHELPRSSQSSESYDISPDERLIAFSAYGSDNRVDPKLDLFLATIGGNKAENITPENPAPDLNPSFSPNGKTLAFTRQKIPGFYADTARLMLLDVSSRKLTTLTPDWDRSVSEFEWTPDSKGFYASIEDAATNRIYHIDAKSGKAKAITQATDFSQPAIAKDGQLIATNQSFLYPARLVSINPRNGKTERLEQFNDDILKDVDLGTYESVTYKGYQGQDIQMWVHYPPGFDRSKKYPLFMLIHGGPHNAISDGFHYRWNAQTFASWGYVTAWPNFHGSSGFGQDFADAINPDWKNKSLEDVLKATDWFKQQSWIDSDRMVAGGASYGGYLTSIILGQPHPFKALLIHAAVYDMYAQMSADFAVHSTRFGNYWDNPELYKAISPHYFAANFNTPTLVSHGQLDYRVPVGQGFELFRTLQTRNVESRMIYFPDENHWIVKPNNSIYWYNQVKDWMAHYAKPGAQ | failed
10 | MKKEFSAGGVLFKDGEVLLIKTPSNVWSFPKGNIEPGEKPEETAVREVWEETGVKGEILDYIGEIHYWYTLKGERIFKTVKYYLMKYKEGEPRPSWEVKDAKFFPIKEAKKLLKYKGDKEIFEKALKLKEKFKL | not failed
11 | MKKEKIHLEYLLNATSKNILWSAISTPTGLEDWFADKVVSDDKTVTFCWGKTEQRQAGIVAIRAYSFIRFHWLDDENERDYFEIKMSYNELTGDYVLEITDFSEADEADDLKELWDSQVSKLRRTCGFLEHHHHHH | not failed
12 | MKKEYGYPTLKVICQASAGNETAIREILKFYDAYICKLCLRPFYHFESGKITMQVDEELKGQIHIEMMKAILKFEIRVK | failed
13 | MKKGAFITQIVIYGLILLASSLIANLVNKIWPAFPMPTPLIGMILLYLLLTFKVVKLEQVAGVSNFFVQFISLIFIPSGIALVTKLDVLKAEGVQIVIVIIVSTLMLLLFTAGIAWVLIQVKEWFIARRTNSNVELEED | failed
14 | MKKGTDLLKKGFAKMVKHGVVMDVTNVEQAQIAEEAGAVAVMALERVPADIRAAGGVARMSDPALIEEIMDAVSIPVMAKCRIGHTTEALVLEAIGVDMIDESEVLTQADPFFHIYKKKFNVPFVCGARNLGEAVRRIWEGAAMIRTKGEAGTGNIVEAVRHMRLMNEAIAQLQRMTDEEVYGVAKFYANRYAELAKTVREGMGLPATVLENEPIYEGFTLAEIIDGLYEVLLEVKKLGRLPVVNFAAGGVATPADAALMMQLGSDGVFVGSGIFKSENPLERARAIVEATYNYDKPDIVAEVSKNLGEAMKGIDITQISEAEKMQYRGD | not failed
15 | MKKIAFFIFVILFSVGIYLIWHVLLEKALELKLATSANDLLLKLLAILGVFSMLVLFQGIISSYKKRQLKRILQKIDAMNGFEFEEYSKIFFTSKGFEVSITQKSGDYGADLIIEKDGIKWAVQVKRYSHKVSPKAIQEVVSSKAYYACEKACVITNSYFTQAAQKLAQANEVLLIDRDEWVRFLNEKR | failed
16 | MKKIEIFDPAMCCSTGVCGPSVDPELIRISVAVNNLKNKGIDVTRYNLASEPDAFANNGVISQLLTDKGPDVLPVTLVDGKVVKEKSHLTNEELTQLTDITEEELSQKPVVRLKLNVKK | not failed
17 | MKKIIAITGFAMLGGGLREGLSLLVTWPQHFWITCLINIVGAFVLSLITNLLPARLPVSEDIVIGMSVGFVGSFTTFSTFTFETLQSFQSGHSVLALSYVAASLGLGLLAGLAGNFLSTYWLPKEEF | failed

— a protein production outcome set (Wang et al. 2014)
